Paper PMC7158967, “Comparative evaluation of ^68Ga-labelled TATEs: the impact of chelators on imaging” (EJNMMI Research, 2020)
Where two headings read alike, the source gives them in different places.

Assays:
[1] = assay type: in vitro ADME; details: human
Method: In vitro serum binding studies for both ^68Ga-labelled NOTA-TATE and DOTA-TATE were carried out by following a generalized procedure summarized below. One millilitre of fresh anticoagulated (heparinized) human plasma was prepared. Freshly labelled compound (3.7 MBq, 0.1 mCi) was added to three centrifuge tubes, each containing 0.1 mL of human plasma. After incubation at 37 °C for 2 h, 1 mL of ice-cold methanol was added to each tube. The mixtures were separated by centrifugation (5 min, 3000 rpm) to collect the supernatant, which was repeated three times. A gamma counter was then used to measure the radioactivity of the supernatant (A) and the precipitate (B) in counts per minute (CPM); the plasma-protein binding rate was calculated as PPB = B/(A + B)100%, and the average of three tubes was recorded.

[2] = Micro-PET/CT imaging of AR42J tumour-bearing nude mice; details: both sexes, mouse, in vivo, iv, 2.96 MBq, total radioactivity, nude mice bearing AR42J tumours, read-out: SUVmax, 3D micro-PET/CT
Method: (§1) Tumour cells were subcutaneously injected into the left forelimb of each nude mouse. Biodistribution and imaging studies were conducted when the tumour volume reached at least 1.0 × 1.0 × 1.0 cm^3.
Six (3 female and 3 male) mice with AR42J tumour xenografts (15–20 g) were used in the imaging study. All tumour-bearing mice were anaesthetized by intranasal inhalation of isoflurane. […] Images were acquired and reconstructed using micro-PET/CT at 30 min and 2 h after intravenous injection.

[3] = system: KM mice; details: mouse, in vivo
Method: Thirty KM mice were randomly divided into a control group, a ^68Ga- NOTA-TATE low-dose group (100 μCi) and a high-dose group (1 mCi). Each group contained 10 mice, half female and half male. The dose of the appropriate compound was administered through the tail vein at an administration volume of 0.2 mL. The animal blood routine, body weight and animal feed consumption were performed before administration and on days 4, 7, 14, 21 and 28 after administration. At the end of the observation period, the surviving mice were dissected, and histopathological examination was performed on the myocardium, liver, spleen, lung, kidney, stomach, intestine, gonad, bone, muscle and brain of each mouse.

[4] = clinical; details: human, in vivo, total radioactivity
Method: (§2) Twenty-two healthy volunteers gave informed consent and agreed to participate in the study. […] Each patient was injected with an average activity of 1.9 MBq/kg. The timing of image acquisition ranged from 30 to 45 min after injection (3 min/bed position). The PET image was attenuated and then reconstructed using the iterative reconstruction algorithm implemented.

[5] = system: healthy volunteers; test: clinical; details: human, in vivo
Method: as §2

[6] = Biodistribution in AR42J tumour-bearing nude mice; details: mouse, in vivo; for tissue to tissue ratio at 0.25 h / tissue to tissue ratio at 0.5 h / tissue to tissue ratio at 1 h / tissue to tissue ratio at 2 h: both sexes, nude, iv, 0.1 mCi, total radioactivity
Method: as §1

C[C@@H](O)[C@@H]1NC(=O)[C@H](CCCCN)NC(=O)[C@@H](Cc2c[nH]c3ccccc23)NC(=O)[C@H](Cc2ccccc2)NC(=O)[C@@H](NC(=O)[C@@H](Cc2ccccc2)NC(=O)CN2CCN(CC(=O)O)CCN(CC(=O)O)CC2)CSSC[C@@H](C(=O)N[C@H](CO)[C@@H](C)O)NC1=O [^68Ga-NOTA-TATE, metal not drawn] showed a fraction unbound at 2 h [1] of 0.879, an SUV at 0.5 h ([2]; 30 min after i.v. injection) of 3.02 SUV and an SUV at 2 h ([2]; 120 min after i.v. injection) of 1.64 SUV. For the same compound, the “acute animal toxicity, overall finding” value [3] was “no apparent toxicity”, the histopathological examination [3] was “no toxic pathological changes” and the SUV ([4]; both sexes, 1.9 MBq/kg, SUVmax Adrenals, average) was 10.7 SUV. It also gave an SUV ([4]; both sexes, 1.9 MBq/kg, SUVmax Blood pool, average) of 1.4 SUV, an SUV ([4]; both sexes, 1.9 MBq/kg, SUVmax Bone marrow, average) of 0.9 SUV and an SUV ([4]; both sexes, 1.9 MBq/kg, SUVmax Kidneys, average) of 14.1 SUV. It also gave an SUV ([4]; both sexes, 1.9 MBq/kg, SUVmax Large bowel, average) of 1.5 SUV, an SUV ([4]; both sexes, 1.9 MBq/kg, SUVmax Liver, average) of 4.2 SUV and an SUV ([4]; both sexes, 1.9 MBq/kg, SUVmax Lungs, average) of 0.6 SUV. The SUV ([4]; both sexes, 1.9 MBq/kg, SUVmax Lymph nodes, average) was 1.2 SUV, the SUV ([4]; both sexes, 1.9 MBq/kg, SUVmax Palatine tonsil, average) was 1.3 SUV and the SUV ([4]; both sexes, 1.9 MBq/kg, SUVmax Pancreas, average) was 3.7 SUV. The SUV ([4]; both sexes, 1.9 MBq/kg, SUVmax Parotid gland, average) was 0.9 SUV, the SUV ([4]; both sexes, 1.9 MBq/kg, SUVmax Pituitary gland, average) was 1.5 SUV and the SUV ([4]; both sexes, 1.9 MBq/kg, SUVmax Small bowel, average) was 1.8 SUV. It also gave an SUV ([4]; both sexes, 1.9 MBq/kg, SUVmax Spleen, average) of 14.6 SUV, an SUV ([4]; both sexes, 1.9 MBq/kg, SUVmax Stomach, average) of 2.4 SUV and an SUV ([4]; both sexes, 1.9 MBq/kg, SUVmax Submandibular, average) of 1.2 SUV. For the same compound, the SUV ([4]; both sexes, 1.9 MBq/kg, SUVmax Thymus, average) was 1.1 SUV, the SUV ([4]; both sexes, 1.9 MBq/kg, SUVmax Thyroid, average) was 1.7 SUV and the SUV ([4]; both sexes, iv, 1.9 MBq/kg, SUVmax Breast, average) was 0.7 SUV. The SUV ([4]; iv, 1.86 mCi, SUVmax kidney, single volunteer) was 12.5 SUV, the SUV ([4]; iv, 1.86 mCi, SUVmax liver, single volunteer) was 1.4 SUV and the SUV ([4]; iv, 1.86 mCi, SUVmax pituitary, single volunteer) was 1.9 SUV. The SUV ([4]; iv, 1.86 mCi, SUVmax spleen, single volunteer) was 6.8 SUV, the SUV ([4]; iv, 3.83 mCi, SUVmax kidney, single volunteer) was 6.2 SUV and the SUV ([4]; iv, 3.83 mCi, SUVmax liver, single volunteer) was 1.3 SUV. For the same compound, the SUV ([4]; iv, 3.83 mCi, SUVmax pituitary, single volunteer) was 0.7 SUV, the SUV ([4]; iv, 3.83 mCi, SUVmax spleen, single volunteer) was 3.9 SUV and the “SUVmax Adrenals, range” value [5] was 5.7~15.6. For the same compound, the “SUVmax Blood pool, range” value [5] was 0.9~1.6, the “SUVmax Bone marrow, range” value [5] was 0.7~1.1 and the “SUVmax Breast, range” value [5] was 0.5~1.1. For the same compound, the “SUVmax Kidneys, range” value [5] was 6.2~20.3, the “SUVmax Large bowel, range” value [5] was 1.0~2.4 and the “SUVmax Liver, range” value [5] was 1.3~6.3. The “SUVmax Lungs, range” value [5] was 0.3~0.9, the “SUVmax Lymph nodes, range” value [5] was 0.8~1.4 and the “SUVmax Palatine tonsil, range” value [5] was 0.6~1.8. For the same compound, the “SUVmax Pancreas, range” value [5] was 2.0~5.5, the “SUVmax Parotid gland, range” value [5] was 0.7~1.3 and the “SUVmax Pituitary gland, range” value [5] was 0.7~2.3. For the same compound, the “SUVmax Small bowel, range” value [5] was 1.4~2.5, the “SUVmax Spleen, range” value [5] was 10.7~17.1 and the “SUVmax Stomach, range” value [5] was 1.6~4.9. The “SUVmax Submandibular, range” value [5] was 0.7~1.4, the “SUVmax Thymus, range” value [5] was 0.6~1.4 and the “SUVmax Thyroid, range” value [5] was 1.2~2.5. For the same compound, the “radioactivity in the gallbladder” value [5] was “not seen”, the “side effects after administration” value [5] was “no apparent side effects” and the “uptake in the brain” value [5] was “No apparent”. For the same compound, the tissue to tissue ratio at 0.25 h [6] was 12.5, the tissue to tissue ratio at 0.5 h [6] was 8.45 and the tissue to tissue ratio at 1 h [6] was 39.5. The tissue to tissue ratio at 2 h [6] was 44.3, the tissue to tissue ratio at 0.25 h ([6]; 15 min postinjection, read-out: Tumour/kidney ratio) was 0.18 and the tissue to tissue ratio at 0.5 h ([6]; 0.5 h postinjection, read-out: Tumour/kidney ratio) was 0.94. It also gave a tissue to tissue ratio at 1 h ([6]; 1 h postinjection, read-out: Tumour/kidney ratio) of 0.81, a tissue to tissue ratio at 2 h ([6]; 2 h postinjection, read-out: Tumour/kidney ratio) of 0.79 and a tissue uptake at 0.25 h ([6]; %ID/g Blood) of 3.25 ± 1.06 %ID/g. The tissue uptake at 0.5 h ([6]; %ID/g Blood) was 1.01 ± 0.42 %ID/g, the tissue uptake at 1 h ([6]; %ID/g Blood) was 0.58 ± 0.24 %ID/g and the tissue uptake at 2 h ([6]; %ID/g Blood) was 0.07 ± 0.06 %ID/g. It also gave a tissue uptake at 0.25 h ([6]; %ID/g Gallbladder) of 3.62 ± 1.94 %ID/g, a tissue uptake at 0.5 h ([6]; %ID/g Gallbladder) of 6.21 ± 2.69 %ID/g and a tissue uptake at 1 h ([6]; %ID/g Gallbladder) of 1.83 ± 0.84 %ID/g. The tissue uptake at 2 h ([6]; %ID/g Gallbladder) was 1.61 ± 0.67 %ID/g, the tissue uptake at 0.25 h ([6]; %ID/g Intestines) was 0.07 ± 0.04 %ID/g and the tissue uptake at 0.5 h ([6]; %ID/g Intestines) was 0.03 ± 0.02 %ID/g. The tissue uptake at 1 h ([6]; %ID/g Intestines) was 0.21 ± 0.09 %ID/g, the tissue uptake at 2 h ([6]; %ID/g Intestines) was 0.13 ± 0.07 %ID/g and the tissue uptake at 0.25 h ([6]; %ID/g Kidney) was 17.1 ± 6.39 %ID/g. For the same compound, the tissue uptake at 0.5 h ([6]; %ID/g Kidney) was 4.23 ± 2.73 %ID/g, the tissue uptake at 1 h ([6]; %ID/g Kidney) was 3.79 ± 2.16 %ID/g and the tissue uptake at 2 h ([6]; %ID/g Kidney) was 1.69 ± 1.02 %ID/g. It also gave a tissue uptake at 0.25 h ([6]; %ID/g Liver) of 1.19 ± 0.54 %ID/g, a tissue uptake at 0.5 h ([6]; %ID/g Liver) of 0.43 ± 0.23 %ID/g and a tissue uptake at 1 h ([6]; %ID/g Liver) of 0.07 ± 0.04 %ID/g. It also gave a tissue uptake at 2 h ([6]; %ID/g Liver) of 0.04 ± 0.02 %ID/g, a tissue uptake at 0.25 h ([6]; %ID/g Lungs) of 3.64 ± 1.56 %ID/g and a tissue uptake at 0.5 h ([6]; %ID/g Lungs) of 0.21 ± 0.17 %ID/g. For the same compound, the tissue uptake at 1 h ([6]; %ID/g Lungs) was 0.64 ± 0.41 %ID/g, the tissue uptake at 2 h ([6]; %ID/g Lungs) was 0.48 ± 0.21 %ID/g and the tissue uptake at 0.25 h ([6]; %ID/g Muscle) was 0.26 ± 0.03 %ID/g. The tissue uptake at 0.5 h ([6]; %ID/g Muscle) was 0.47 ± 0.26 %ID/g, the tissue uptake at 1 h ([6]; %ID/g Muscle) was 0.08 ± 0.06 %ID/g and the tissue uptake at 2 h ([6]; %ID/g Muscle) was 0.03 ± 0.01 %ID/g. It also gave a tissue uptake at 0.25 h ([6]; %ID/g Skeleton) of 2.14 ± 1.41 %ID/g, a tissue uptake at 0.5 h ([6]; %ID/g Skeleton) of 1.46 ± 0.37 %ID/g and a tissue uptake at 1 h ([6]; %ID/g Skeleton) of 0.85 ± 0.38 %ID/g. The tissue uptake at 2 h ([6]; %ID/g Skeleton) was 0.13 ± 0.07 %ID/g, the tissue uptake at 0.25 h ([6]; %ID/g Spleen) was 0.19 ± 0.08 %ID/g and the tissue uptake at 0.5 h ([6]; %ID/g Spleen) was 0.13 ± 0.11 %ID/g. For the same compound, the tissue uptake at 1 h ([6]; %ID/g Spleen) was 0.12 ± 0.06 %ID/g, the tissue uptake at 2 h ([6]; %ID/g Spleen) was 0.03 ± 0.01 %ID/g and the tissue uptake at 0.25 h ([6]; %ID/g Stomach) was 0.19 ± 0.13 %ID/g. The tissue uptake at 0.5 h ([6]; %ID/g Stomach) was 3.55 ± 1.83 %ID/g, the tissue uptake at 1 h ([6]; %ID/g Stomach) was 1.61 ± 1.03 %ID/g and the tissue uptake at 2 h ([6]; %ID/g Stomach) was 1.11 ± 0.21 %ID/g. The tissue uptake at 0.25 h ([6]; %ID/g Tumour) was 3.24 ± 1.03 %ID/g, the tissue uptake at 0.5 h ([6]; %ID/g Tumour) was 3.97 ± 2.24 %ID/g and the tissue uptake at 1 h ([6]; %ID/g Tumour) was 3.16 ± 1.92 %ID/g. For the same compound, the tissue uptake at 2 h ([6]; %ID/g Tumour) was 1.33 ± 0.96 %ID/g.
